In one assay the test system is CD8+ T cells. Put plainly: In vitro T-cell priming assay with aAPCs loaded with peptide/MHC and anti-CD28, multimer readout. It counts as cell-based, human. Particulars: in vitro immunogenicity, HLA-A*02 restricted peptides; percentage of positive wells. The source says:
In order to obtain information regarding the immunogenicity of the TUMAPs of the present invention, the inventors performed investigations using an in vitro T-cell priming assay based on repeated stimulations of CD8+ T cells with artificial antigen presenting cells (aAPCs) loaded with peptide/MHC complexes and anti-CD28 antibody.
In order to perform in vitro stimulations by artificial antigen presenting cells loaded with peptide-MHC complex (pMHC) and anti-CD28 antibody, the inventors first isolated CD8+ T cells from fresh HLA-A*02 leukapheresis products via positive selection using CD8 microbeads (Miltenyi Biotec, Bergisch-Gladbach, Germany) of healthy donors obtained from the University clinics Mannheim, Germany, after informed consent.
PBMCs and isolated CD8+ lymphocytes were incubated in T-cell medium (TCM) until use consisting of RPMI-Glutamax (Invitrogen, Karlsruhe, Germany) supplemented with 10% heat inactivated human AB serum (PAN-Biotech, Aidenbach, Germany), 100 U/ml Penicillin/100 μg/ml Streptomycin (Cambrex, Cologne, Germany), 1 mM sodium pyruvate (CC Pro, Oberdorla, Germany), 20 μg/ml Gentamycin (Cambrex). 2.5 ng/ml IL-7 (PromoCell, Heidelberg, Germany) and 10 U/ml IL-2 (Novartis Pharma, Nürnberg, Germany) were also added to the TCM at this step.
Generation of pMHC/anti-CD28 coated beads, T-cell stimulations and readout was performed in a highly defined in vitro system using four different pMHC molecules per stimulation condition and 8 different pMHC molecules per readout condition.
The purified co-stimulatory mouse IgG2a anti human CD28 Ab 9.3 (Jung et al., 1987) was chemically biotinylated using Sulfo-N-hydroxysuccinimidobiotin as recommended by the manufacturer (Perbio, Bonn, Germany). Beads used were 5.6 μm diameter streptavidin coated polystyrene particles (Bangs Laboratories, Illinois, USA).
800.000 beads/200 μl were coated in 96-well plates in the presence of 4×12.5 ng different biotin-pMHC, washed and 600 ng biotin anti-CD28 were added subsequently in a volume of 200 μl. Stimulations were initiated in 96-well plates by co-incubating […] CD8+ T cells with 2×10^5 washed coated beads in 200 μl TCM supplemented with 5 ng/ml IL-12 (PromoCell) for 3 days at 37° C. Half of the medium was then exchanged by fresh TCM supplemented with 80 U/ml IL-2 and incubating was continued for 4 days at 37° C. This stimulation cycle was performed for a total of three times. For the pMHC multimer readout using 8 different pMHC molecules per condition, a two-dimensional combinatorial coding approach was used as previously described (Andersen et al., 2012) with minor modifications encompassing coupling to 5 different fluorochromes. Finally, multimeric analyses were performed by staining the cells with Live/dead near IR dye (Invitrogen, Karlsruhe, Germany), CD8-FITC antibody clone SK1 (BD, Heidelberg, Germany) and fluorescent pMHC multimers. For analysis, a BD LSRII SORP cytometer equipped with appropriate lasers and filters was used. Peptide specific cells were calculated as percentage of total CD8+ cells. Evaluation of multimeric analysis was done using the FlowJo software (Tree Star, Oreg., USA). In vitro priming of specific multimer+CD8+ lymphocytes was detected by comparing to negative control stimulations.
With “114 (LIPEGPPQV; listed as Homo sapiens) [compound 114]”, the “Wells positive [%]” value was ““+” (<20% = +)”. “102 (IQDRAVPSL; listed as Homo sapiens) [compound 102]”: the “Wells positive [%]” value is listed as ““+” (<20% = +)”. Regarding “201 (YQLELHGIEL; listed as Homo sapiens) [compound 201]”, the “Wells positive [%]” value is listed as ““+” (<20% = +)”. Same read-out and setting: for “17 (ALTKTNLQL; listed as Homo sapiens) [compound 17]” the value was ““+” (<20% = +)”; for “49 (FLTDLFAQL; listed as Homo sapiens) [compound 49]”, ““++” (20%-49% = ++)”.

Staying with this assay, now noted: in vitro immunogenicity, percentage of positive wells, healthy HLA-A*02 donors.
With “427 (LLYDAVHIV; listed as Homo sapiens) [compound 427]”, the wells entry is recorded as “++ (20%-49% = ++)”. Same read-out and setting: the value for “521 (YLYGQTTTYL; listed as Homo sapiens) [compound 521]” was “++ (20%-49% = ++)”.

For another assay, the target named is HLA-A*02:01 (Homo sapiens, UniProt P04439, D140Y/D185E/D98H/E176V/E277Q/G131W/G231S/I119V/I121R/I166T/I218V/L300P/L318F/N151K/N90K/P208A/P217A/Q86G/Q94H/R138H/R169H/T345S). Briefly: MHC binding assay (UV-ligand exchange, beta2m ELISA). Particulars: binding of HLA-class I restricted peptides to HLA-A*02:01, β2m ELISA. A digest of the protocol: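 UV-cleavable peptide in HLA monomers exchanged for test peptide by UV irradiation; exchange yield measured by streptavidin-capture ELISA with HRP anti-β2m (TMB, 450 nm) on 100-fold diluted complexes. Quantified against refolded HLA-A*02:01/MLA-001 standards (15-500 ng/ml).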
Consider “114 (LIPEGPPQV; listed as Homo sapiens) [compound 114]”, for which the “Peptide Exchange (MHC class I binding score, peptide exchange yield)” value (“Peptide Exchange” below) is ““+++” (≥50 = +++)”. In the case of “102 (IQDRAVPSL; listed as Homo sapiens) [compound 102]”, the “Peptide Exchange” value is recorded as ““++” (≥20% = ++)”. In the case of “201 (YQLELHGIEL; listed as Homo sapiens) [compound 201]”, the “Peptide Exchange” value is listed as ““++++” (≥75% = ++++)”. Still for that read-out and setting: for “17 (ALTKTNLQL; listed as Homo sapiens) [compound 17]” the value was ““+++” (≥50 = +++)”; for “49 (FLTDLFAQL; listed as Homo sapiens) [compound 49]”, ““++++” (≥75% = ++++)”. On to “61 (FVYFIVREV; listed as Homo sapiens) [compound 61]”, for which the “Peptide Exchange” value is reported as ““+++” (≥50 = +++)”. On the same count and under the same terms, for “88 (ILDEIGADVQA; listed as Homo sapiens) [compound 88]” the value was ““+++” (≥50 = +++)”; for “155 (SLMLEVPAL; listed as Homo sapiens) [compound 155]”, ““+++” (≥50 = +++)”. “331 (VLWELAHLPTL; listed as Homo sapiens) [compound 331]”: the “Peptide Exchange” value is on record as ““+++” (≥50 = +++)”.

For “216 (WLAGDVPAA; listed as Homo sapiens) [compound 216]”, the “Peptide Exchange” value is ““+++” (≥50 = +++)”. The same measure, in the same setting: for “170 (TLTFRVETV; listed as Homo sapiens) [compound 170]” the value was ““+++” (≥50 = +++)”; for “35 (FILPSSLYL; listed as Homo sapiens) [compound 35]”, ““+++” (≥50 = +++)”; for “38 (FIMEGGAMV; listed as Homo sapiens) [compound 38]”, ““+++” (≥50 = +++)”.

“351 (ALSEKLARL; listed as Homo sapiens) [compound 351]”: the “Peptide Exchange” value was ““+++” (≥50 = +++)”. Take “105 (KLMNDIADI; listed as Homo sapiens) [compound 105]”: the “Peptide Exchange” value is given as ““++” (≥20% = ++)”.

“14 (ALLRLLPGL; listed as Homo sapiens) [compound 14]”: the “Peptide Exchange” value is ““+++” (≥50 = +++)”. The same measure, in the same setting: the value for “89 (ILDFGTFQL; listed as Homo sapiens) [compound 89]” was ““+++” (≥50 = +++)”; that for “271 (VIRNIVEAA; listed as Homo sapiens) [compound 271]” was ““++” (≥20% = ++)”. The same measure, in the same setting: for “107 (ILYNLYDLL; listed as Homo sapiens) [compound 107]” the value was ““+++” (≥50 = +++)”. Same read-out and setting: for “306 (VVAEELENV; listed as Homo sapiens) [compound 306]” the value was ““++” (≥20% = ++)”. As to “269 (TLTDEQFLV; listed as Homo sapiens) [compound 269]”, the “Peptide Exchange” value is listed as ““++” (≥20% = ++)”. “58 (YIQQGIFSV; listed as Homo sapiens) [compound 58]”: the “Peptide Exchange” value is ““+++” (≥50 = +++)”.

Turning to “297 (FLVEPQEDTRL; listed as Homo sapiens) [compound 297]”, the “Peptide Exchange” value is listed as ““+++” (≥50 = +++)”. As to “276 (VLNDGAPNV; listed as Homo sapiens) [compound 276]”, the “Peptide Exchange” value is given as ““+++” (≥50 = +++)”. Still for that read-out and setting: the value for “223 (ALWVSQPPEI; listed as Homo sapiens) [compound 223]” was ““+++” (≥50 = +++)”; that for “118 (RLLILENILL; listed as Homo sapiens) [compound 118]” was ““+++” (≥50 = +++)”. As to “377 (VVDGTCVAV; listed as Homo sapiens) [compound 377]”, the “Peptide Exchange” value was ““+++” (≥50 = +++)”. Still for that read-out and setting: the value for “125 (LLLEIGEVGKLFV; listed as Homo sapiens) [compound 125]” was ““+++” (≥50 = +++)”; that for “117 (LLILENILL; listed as Homo sapiens) [compound 117]” was ““+++” (≥50 = +++)”; that for “4 (VIAELPPKVSV; listed as Homo sapiens) [compound 4]” was ““+++” (≥50 = +++)”. Still for that read-out and setting: for “111 (KLWNVAAPLYL; listed as Homo sapiens) [compound 111]” the value was ““+++” (≥50 = +++)”. On the same count and under the same terms, for “134 (MLLEHGITLV; listed as Homo sapiens) [compound 134]” the value was ““++++” (≥75% = ++++)”; for “66 (SLAGGLDDMKA; listed as Homo sapiens) [compound 66]”, ““+++” (≥50 = +++)”. Regarding “254 (QLIPKLIFL; listed as Homo sapiens) [compound 254]”, the “Peptide Exchange” value is ““+++” (≥50 = +++)”. Same read-out and setting: for “302 (ILQDLTFVHL; listed as Homo sapiens) [compound 302]” the value was ““+++” (≥50 = +++)”. Consider “171 (TLVPPAALISI; listed as Homo sapiens) [compound 171]”, for which the “Peptide Exchange” value is reported as ““+++” (≥50 = +++)”. Same read-out and setting: for “141 (QILSEIVEA; listed as Homo sapiens) [compound 141]” the value was ““++” (≥20% = ++)”; for “75 (GLSIFAQDLRL; listed as Homo sapiens) [compound 75]”, ““++” (≥20% = ++)”.

In the case of “16 (ALPGGAAVAAV; listed as Homo sapiens) [compound 16]”, the “Peptide Exchange” value is recorded as ““++++” (≥75% = ++++)”. Same read-out and setting: the value for “260 (SLDDVEGMSV; listed as Homo sapiens) [compound 260]” was ““+++” (≥50 = +++)”; that for “93 (ILFNTQINI; listed as Homo sapiens) [compound 93]” was ““+++” (≥50 = +++)”; that for “119 (VLPAEFFEV; listed as Homo sapiens) [compound 119]” was ““+++” (≥50 = +++)”. Still for that read-out and setting: for “157 (SLNIRDFTM; listed as Homo sapiens) [compound 157]” the value was ““+++” (≥50 = +++)”.

(Values after patent US10064928B2, “Peptides and combination of peptides for use in immunotherapy against CLL and other cancers” (IMMATICS BIOTECHNOLOGIES GMBH, priority 2015, dated 2018).)
